Measurements from US9309315B2, “Therapy with CD4 binding peptides and radiation” (GENMAB A/S, priority 2005, dated 2016).

B1: zanolimumab (antibody, listed as Homo sapiens, V domains shown)
VH: QVQLQQWGAGLLKPSETLSLTCAVYGGSFSGYYWSWIRQPPGKGLEWIGEINHSGSTNYNPSLKSRVTISVDTSKNQFSLKLSSVTAADTAVYYCARVINWFDPWGQGTLVT
VL: DIQMTQSPSSVSASVGDRVTITCRASQDISSWLAWYQHKPGKAPKLLIYAASSLQSGVPSRFSGSGSGTDFTLTISSLQPEDFATYYCQQANSFPYTFGQGTKLEIK
modifications: anti CD4 Vh; anti CD4 VL
notes: anti-CD4 monoclonal human antibody (GenMab, Denmark), same as 6G5 of WO97/13852

Tests used:
Assay type in all cases: cell-based, human
Dok-1 = test: SH2-precipitation (SH2C-RasGAP-GST) and Dok-1 blot of lysates from CD4+ T cells incubated with zanolimumab; conditions: SH2-precipitate; for amount of precipitated Dok-1 after inhibitor pre-treatment: cells pre-incubated with inhibitor before zanolimumab exposure, FIG. 3D
Method: (§1) FIG. 3 illustrates results from CD4^+ T cells incubated with zanolimumab or a human immunoglobulin negative control. Cell lysates were CD4-precipitated (A), SH2-precipitated (B, D) or used as whole lysate (C). FIG. 3A: Two CD4-precipitates were submitted to a kinase assay (upper two panels). Blots were probed with antibodies to p56^Ick (top panel), the p56^Ick substrate α-casein (second panel), Y-394 phosphorylated p56^Ick (third panel), p56^Ick (fourth panel) or CD4 (bottom panel). The numbers below the blots represent densitometric values normalized for p56^Ick loading. FIG. 3B: Blots with SH2-precipitate were incubated with antibodies to Dok-1 (top panel) or GST (bottom panel). The numbers below the blots represent densitometric values normalized for GST loading. FIG. 3C: Proteins in whole cell lysate were separated by SDS-PAGE and blotted. Membranes were incubated with antibodies to phosphorylated SHIP-1 (top panel) or SHIP-1 regardless of phosphorylation status (bottom panel). The numbers below the blots represent densitometric values normalized for SHIP-1 loading. FIG. 3D: Before zanolimumab exposure, cells were pre-incubated with Src kinase inhibitors PP2 or damnacanthal (DAM). Blots were incubated with antibodies for Dok-1 (top panel) or GST (bottom panel). The numbers below the blots represent densitometric values normalized for GST loading. Results for the experiments shown here are representative of 4 independent experiments.
The activation of inhibitory adaptor molecules in T cells presented in FIG. 3 were obtained with CD4^+ T cells isolated as described in example 1. CD4^+ T cells (3×10E7 cells) were incubated with zanolimumab and, when appropriate, pre-incubated with Src kinase inhibitors PP2 or damnacanthal (Merck Biosciences, Nottingham, UK) before exposure to zanolimumab. Cell lysates were incubated with CD4-precipitating antibody and antibody-bound proteins were precipitated with protein-G sepharose. […] Proteins were detected with an HRP-conjugated secondary antibody, visualized by ECL and quantified using a phosphor-imager.

CD4^+ T cells = test: Western blotting of T-cell signaling molecules in CD4+ T cells incubated with zanolimumab and stimulated with immobilized CD3 monoclonal antibody (OKT3)
Method: FIG. 2 illustrates results of Western blotting of cell lysates prepared from CD4^+ T cells stimulated with CD3 monoclonal antibody and zanolimumab. CD4^+ T cells were incubated with HuMax-CD4 and then stimulated with CD3 monoclonal antibody (OKT3) immobilized onto latex beads. Proteins in duplicate cell lysate samples were separated by 7-15% gradient gel SDS-PAGE and were transferred onto blotting membranes by electrophoresis. One membrane was incubated with a phosphotyrosine specific antibody, stripped and then re-probed with TCRζ and LAT specific antibodies (FIG. 2A). The other was incubated with antibodies to the phosphorylated form of specific proteins, stripped and then re-probed with ZAP-70 (2B), Erk1/2, p38 and AKT antibodies (2C). The numbers below the blots represent densitometric values normalized for loading relative to values observed after 2 min of CD3-stimulation in the absence of HuMax-CD4. Results for the experiments shown here are representative of 4 independent experiments.
The effect on T-cell signaling molecules upon T-cell activation presented in FIG. 2 were obtained with CD4^+ T cells isolated from peripheral blood from healthy donors. CD4^+ T cells were isolated using enrichment RosetteSep cocktail (Stemcell Technologies Inc, Canada) and separated by lymphoprep (Axis Shield, Poc AS, Norway) density centrifugation. CD4^+ T cells (10^7 cells) were incubated with zanolimumab and then stimulated with CD3 monoclonal antibody (OKT3, available from Orthoclone, Pharmacy, UMC, Utrecht) immobilized onto latex beads. Cell were lysed using lysis buffer (1% Nonidet P-40, 20 mM Tris-HCl, pH 7.4, 150 mM NaCl, 2 mM EGTA, 1 mM Na3VO4, 10 mM NaF, 10 mM sodium pyrophosphate and protease inhibitors (Roche Molecular Biochemicals, Sussex, UK)). Proteins in duplicate cell lysate samples were separated by 7-15% gradient gel SDS-PAGE and transferred onto blotting membranes by electrophoresis. Membranes were incubated with antibodies for specific tyrosine-phosphorylated proteins, stripped and then re-probed with antibodies recognizing the specific proteins regardless of their phosphorylation status. Proteins were detected with an HRP-conjugated secondary antibody, visualized by ECL and quantified using a phosphor-imager.

SHIP-1 = test: Whole cell lysate blot for phosphorylated SHIP-1 in CD4+ T cells incubated with zanolimumab; conditions: FIG. 3C
Method: as §1, with “FIG. 3D: Before zanolimumab exposure, cells were pre-incubated with Src kinase inhibitors PP2 or damnacanthal (DAM). Blots were incubated with antibodies for Dok-1 (top panel) or GST (bottom panel). The numbers below the blots represent densitometric values normalized for GST loading. Results for the experiments shown here are representative of 4 independent experiments.” left out
The activation of inhibitory adaptor molecules in T cells presented in FIG. 3 were obtained with CD4^+ T cells isolated as described in example 1. […] Proteins were detected with an HRP-conjugated secondary antibody, visualized by ECL and quantified using a phosphor-imager.

Molecule | amount of precipitated Dok-1 after inhibitor pre-treatment (Dok-1) | phosphorylation of Dok-1 (Dok-1; FIG. 3B) | tyrosine-phosphorylation of intracellular proteins following TCR stimulation (CD4^+ T cells; TCR stimulation via immobilized CD3 monoclonal antibody, FIG. 2A) | phosphorylation of LAT (36-38 kDa) (CD4^+ T cells; after CD3 stimulation, FIG. 2A) | phosphorylation of p21 and p23 phosphorylated isomers of the TCR-ζ chain (CD4^+ T cells; after CD3 stimulation, FIG. 2A) | phosphorylation of ZAP-70 (CD4^+ T cells; after CD3 stimulation, FIG. 2B) | AKT/PKB downstream signaling pathway (CD4^+ T cells; after CD3 stimulation, FIG. 2C) | Erk1/2 downstream signaling pathway (CD4^+ T cells; after CD3 stimulation, FIG. 2C) | p38 serine/threonine downstream signaling pathway (CD4^+ T cells; after CD3 stimulation, FIG. 2C) | inhibition of the very earliest T-cell activation events (CD4^+ T cells; summary of Example 1, densitometry relative to CD3 stimulation without antibody) | phosphorylation of SHIP-1 (SHIP-1)
CC(C)(C)n1nc(-c2ccc(Cl)cc2)c2c(N)ncnc21 [PP2] | reduced amount of precipitated Dok-1 |  |  |  |  |  |  |  |  |  | 
COc1c(C=O)c(O)cc2c1C(=O)c1ccccc1C2=O [damnacanthal] | reduced amount of precipitated Dok-1 |  |  |  |  |  |  |  |  |  | 
B1 |  | induces phosphorylation | generalized inhibition | inhibited | markedly inhibited | inhibition | inhibits | inhibits | inhibits | about 50% | induces phosphorylation
